How the values were obtained:
Assay in all cases: cell-based or functional assay
[1] = target: HIV-1 Env of pseudovirus C4118.c09 (HIV-1)
[2] = target: HIV-1 Env of pseudovirus T250-4 (HIV-1)
[3] = target: HIV-1 Env of pseudovirus 235-47 (HIV-1)
[4] = target: HIV-1 Env of pseudovirus 0815.v3.c3 (HIV-1)
[5] = target: HIV-1 Env of pseudovirus C2101.c01 (HIV-1)
[6] = target: HIV-1 Env of pseudovirus R1166.c01 (HIV-1)
[7] = target: HIV-1 Env of pseudovirus 191955_A11 (HIV-1)
[8] = target: HIV-1 Env of pseudovirus A07412M1.vrc12 (HIV-1)
[9] = target: HIV-1 Env of pseudovirus BJOX009000.02.4 (HIV-1)
[10] = target: HIV-1 Env of pseudovirus X2088_c9 (HIV-1)
[11] = target: HIV-1 Env of pseudovirus R3265.c06 (HIV-1)
[12] = target: HIV-1 Env of pseudovirus 3016.v5.c45 (HIV-1)
[13] = target: HIV-1 Env of pseudovirus 191084 B7-19 (HIV-1)

## N49P7.2 (antibody)
[1]
  IC50: 0.079 µg/mL
  IC80: 0.292 µg/mL
  MPI: 100
[2]
  IC50: > 50 µg/mL
  IC80: > 50 µg/mL
  MPI: 15
[3]
  IC50: 0.127 µg/mL
  IC80: 1.03 µg/mL
  MPI: 90
[4]
  IC50: 0.023 µg/mL
  IC80: 0.103 µg/mL
  MPI: 100
[5]
  IC50: 0.162 µg/mL
  IC80: 0.727 µg/mL
  MPI: 100
[6]
  IC50: 0.267 µg/mL
  IC80: 0.852 µg/mL
  MPI: 100
[7]
  IC50: 44.5 µg/mL
  IC80: > 50 µg/mL
  MPI: 56
[8]
  IC50: 0.768 µg/mL
  IC80: 2.32 µg/mL
  MPI: 100
[9]
  IC50: > 50 µg/mL
  IC80: > 50 µg/mL
  MPI: 43
[10]
  IC50: 0.377 µg/mL
  IC80: 2.03 µg/mL
  MPI: 99
[11]
  IC50: 0.153 µg/mL
  IC80: 0.985 µg/mL
  MPI: 100
[12]
  IC50: 2.77 µg/mL
  IC80: 23.9 µg/mL
  MPI: 90
[13]
  IC50: 0.102 µg/mL
  IC80: 0.29 µg/mL
  MPI: 100

— patent US20230002480A1
